Experiment: soluble on expression in E. coli; label from the status in PepcDB or PDB records
In the case of “MCEQCGKCKCGECTAPRTLPSCLACNRQCLCSAESMVEYGTCMCLVKGIFYHCSNDDEGDSYSDNPCSCSQSHCCSRYLCMGAMSLFLPCLLCYPPAKGCLKLCRRCYDWIHRPGCRCKNSNTVYCKLESCPSRGQGKPSLEHHHHHH”, the “soluble on expression in E. coli” value is reported as “not soluble”.
In the case of “MAHHHHHHMDPLAGLTTGSRNVIDDFFRWSRLSLDKFKRDLTVEASAFQAGNLWREQYTKAEVAQMLNGQLALMLGVVDTQMEGTTAASAELMRAVLREADRQRVTLDIDVKSVLNNAGGVNAMGEHGRQLMSGPTGRLAPLTVEEASGEAARQLAEANAEVKRLQAKLQQVTDAYTQVMRGRSSDTENLLSMQDAMNDKERLAAELARRCQGQDPSLAATVQELRAEVAEAKRELASRLHQSTQYQQVKHLLAQRNEQLKMMRERLAAYDPSFARYGDDINAEDD”, the “soluble on expression in E. coli” value is reported as “soluble”.
For “MAGEKFQKKGKEKWKEKVWYTVEAPPYLGSKEVSVALGEDSNSMVNRVVEVPISELTGNFKKSNEKALFRITNCEGTKCKTIFIGHYIGDDYIRRLVRRRKERIDIIEDVKTSDNSIITVKIVVVTDGKVTNTKKFQIRKVLTDFILNKGLSLPYSEFVRYLIGDDIYNDMISATKDIYPLKKIEVRKSELVSLSGISEIHAGSQLEHHHHHH”, the “soluble on expression in E. coli” value was “soluble”.
With “MSLRPKMADIARMAGVDISTVSRALAGSPRVTKETRALIDQIVRDTGYVLNEAARNLRDGRANQVLVIVSDIAAPFYSDVVQGIVETLAERGINVLLGVTLRQAKREAKLGKQLLTGVVDGIITVTGSVPKPILNMQGFDRKVVAISRPVPHEGVTCVTIDNYAAAKEVMAHLYAMGHRRIVHIGGPNHSETYRDRSAAYVDFMRDHGLVELTNVRSTDSFNDDAESGFEIMKSMLNDGSRPTAVFCATDELAISAMAAARQANRNIPGDVSFFGFDDLKLAGLMHPPLSTVSVPRFEMGRRGAEELFRQIYKGEMPSTKIVLEHRLVLRDSVAKEGHHHHHH” the “soluble on expression in E. coli” value was “not soluble”.
For “MNNSAFTFQTLHPDTIMDALFKQGIRVDSGLTPLNSYENRVYQFQDEERRRFVVKFYRPERWTADQILEEHQFALQLVNDEVPVAAPVAFNGQTLLNHQGFYFAVFPSVGGRQFEADNIDQMEAVGRYLGRMHQTGRKQLFIHRPTIGLNEYLIEPRKLFEDATLIPSGLKAAFLKATDELIAAVTAHWREDFTVLRLHGDCHAGNILWRDGPMFVDLDDARNGPAIQDLWMLLNGDKAQQRMQLETIIEAYEEFSEFDTAEIGLIEPLRAMRLVYYLAWLMRHWADPAFPKNFPWLTGEDYWLRQTATFIEQAKVLQEPPLQLTPMY”, the “soluble on expression in E. coli” value was “not soluble”.
For “GSHMSAGIGESRTELLTWLNGLLNLNYKKIEECGTGAAYCQIMDSIYGDLPMNRVKFNATAEYEFQTNYKILQSCFSRHGIEKTVYVDKLIRCKFQDNLEFLQWLKKHWIRHKDESVYDPDARRKYR”, the “soluble on expression in E. coli” value was “soluble”.
In the case of “MGSDKIHHHHHHMPNKDIDDLVRFLKDKQISTITKKYHSYLTFHGLKAANVFILKEGIIKTSVILQDGREFNISYINQPDVISLLHDEALQYDEQPFNVRIESETATFYQVNRVEFWQYVNAKSELQNYVKQYYRHRLSETFARIQRLTMNGKMGALANFLHDIAEKFGRDLPDEAGVLIDFNVTNEDIAGFCGIANQTSVSRMMRKLKLEDIIDFGMSNDGKRRIIITNMKKLDDYIAY”, the “soluble on expression in E. coli” value is reported as “not soluble”.
In the case of “MHKVSATLLIIDDDEVVRESLAAYLEDSNFKVLQALNGLQGLQIFESEQPDLVICDLRMPQIDGLELIRRIRQTASETPIIVLSGAGVMSDAVEALRLGAADYLIKPLEDLAVLEHSVRRALDRAYLRVENQRYRDKLEAANRELQASLNLLQEDQNAGRQVQMNMLPVTPWSIEGLEFSHRIIPSLYLSGDFVDYFRVDERRVAFYLADVSGHGASSAFVTVLLKFMTTRLLYESRRNGTLPEFKPSEVLAHINRGLINTKLGKHVTMLGGVIDLEKNSLTYSIGGHLPLPVLFVEGQAGYLEGRGLPVGLFDDATYDDRVMELPPSFSLSLFSDGILDVLPGATLKEKEASLPEQVAAAGGTLDGLRQVFGLANLAEMPDDIALLVLSRNLA”, the “soluble on expression in E. coli” value is reported as “soluble”.
For “MDTFRVFSLFAGISINNSHLLEFAVKAGREVMELNEHRATLFNKNVPSRGVKRVTAITNREREAVLRIEFPNVDVTDIDFDLFQARESTDKPLDVAAAIAYRLLLGSGLPQKFGCSDEVLLNFILQCRKKYRNVPYHNFYHVVDVCQTIYTFLYRGNVYEKLTELECFVLLITALVHDLDHMGLNNSFYLKTESPLGILSSASGNKSVLEVHHCNLAVEILSDPESDVFGGLEGAERTLAFRSMIDCVLATDMARHSEFLEKYLEIMKTSYNVDDSDHRQMTMDVLMKAGDISNVTKPFDVSRQWAMAVTEEFYRQGDMEKERGVEVLPMFDRSKNMELAKGQIGFIDFVAAPFFQKIVDACLQGMQWTVDRTKSNRAQWERVLEARSTG”, the “soluble on expression in E. coli” value was “not soluble”.

From the DeepSol protein solubility set
